Measurements: article PMC6847799, “A global functional analysis of missense mutations reveals two major hotspots in the PALB2 tumor suppressor” (Nucleic Acids Research, 2019)

Target: T1, GAL4DBD-BRCA1 wild-type (aa 1315–1863) (UniProt P38398 1315-1863)
T1 construct: BRCA1, aa 1315-1863; bait of the mammalian two-hybrid; source: HEK293FT, transfected (mammalian two-hybrid fusion)
Experiment: two-hybrid; mammalian two-hybrid in HEK293FT cells: VP16 AD-PALB2 N- or C-terminal construct (prey) co-transfected with GAL4DBD-BRCA1 or GAL4DBD-BRCA2 (bait), pG5Luc reporter and pGR-TK internal control; dual-luciferase read 24 h post-transfection; mean percentage luciferase activity of 3 independent experiments
Conditions: partners not purified

T1 sequence (P38398 1315-1863): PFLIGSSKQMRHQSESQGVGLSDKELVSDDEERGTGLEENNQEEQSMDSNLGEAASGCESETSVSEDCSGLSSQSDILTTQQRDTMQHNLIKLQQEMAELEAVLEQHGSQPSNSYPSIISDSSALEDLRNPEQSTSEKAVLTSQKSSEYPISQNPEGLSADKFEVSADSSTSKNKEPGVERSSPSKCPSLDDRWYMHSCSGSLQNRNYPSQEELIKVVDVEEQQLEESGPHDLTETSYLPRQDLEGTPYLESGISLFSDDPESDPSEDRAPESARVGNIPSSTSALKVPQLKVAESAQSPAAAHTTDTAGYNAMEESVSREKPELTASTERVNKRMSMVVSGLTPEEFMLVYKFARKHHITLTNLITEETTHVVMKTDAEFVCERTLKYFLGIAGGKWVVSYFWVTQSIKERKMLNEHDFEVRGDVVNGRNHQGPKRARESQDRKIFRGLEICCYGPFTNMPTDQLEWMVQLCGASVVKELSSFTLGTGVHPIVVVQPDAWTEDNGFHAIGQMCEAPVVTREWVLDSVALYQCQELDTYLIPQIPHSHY

fold increase of luciferase-reporter activity over BRCA1 alone: 2 fold
B1: VP16 AD-PALB2 N-terminal wild-type (aa 1–319) (domain or fragment, human, UniProt Q86YC2 1-319, looked up)
chain: MDEPPGKPLSCEEKEKLKEKLAFLKREYSKTLARLQRAQRAEKIKHSIKKTVEEQDCLSQQDLSPQLKHSEPKNKICVYDKLHIKTHLDEETGEKTSITLDVGPESFNPGDGPGGLPIQRTDDTQEHFPHRVSDPSGEQKQKLPSRRKKQQKRTFISQERDCVFGTDSLRLSGKRLKEQEEISSKNPARSPVTEIRTHLLSLKSELPDSPEPVTEINEDSVLIPPTAQPEKGVDTFLRRPNFTRATTVPLQTLSDSGSSQHLEHIPPKGSSELTTHDLKNIRFTSPVSLEAQGKKMTVSTDNLLVNKAISKSGQLPTSS
notes: PALB2 (1186-amino acid protein), human, aa 1-319; cloned in pVP16 downstream of the VP16 AD cassette; prey; also called PALB2 WT; PALB2 N-terminal construct; source: HEK293FT, transfected (mammalian two-hybrid fusion)
